Source: US20200079842A1 (NETRIS PHARMA, published 2020)
“And” between values parts separate entries of the source, which are not always exact repeats. Equal entries are not always repeated.

Tests used:
[1] = target: T1, His-tagged Netrin-1 (R&D 6419-N1) (human, UniProt O95631 25-604); assay: ELISA, coated His-tagged netrin-1, luminescence
T1 construct: Bought protein; also called adsorbed netrin-1; not shown: His tag
Method: White 96-well microtiter plate (Costar 3912 Corning) was incubated overnight at 4° C. with 100 ng of His-tagged Netrin-1 (R&D 6419-N1) in 100 μL of Phosphate buffer saline (PBS). After three washings with 300 μL of PBS-0.05% TWEEN®-20 (PBS-T), the plate was blocked by addition of 100 μL of PBS-3% BSA and incubated 1 hour at room temperature. After three washings with 300 μL of PBS-T, the plate was incubated with various quantities (10 ng to 1200 ng) of the anti-netrin-1 antibody. After three washings with 300 μL of PBS-T, 100 μL of a relevant secondary antibody conjugated to horse radish peroxidase (e.g. goat anti-human IgG (Fc) Sigma A0170 or goat anti-mouse IgG light chain specific (kappa) Jackson Immunoresearch 115-035-174) diluted 1/10,000 in PBST-3% BSA was added and the plate was incubated 1 hour at room temperature. After three washings with 300 μL of PBS-T, 100 μL of a luminescent substrate of HRP (ECL western blotting substrate, PIERCE) is added. After 5 to 10 minutes, the luminescence was read on a Tecan Infinite F-500 luminometer.

[2] = target: T2, FLAG-tagged netrin-1 (Adipogen) (human, UniProt O95631 25-604, limits assumed); assay: competition ELISA: FLAG-netrin-1 binding to coated UNC5B-Fc
T2 construct: Bought protein; also called FLAG®-tagged Netrin-1 (APOTECH); not shown: FLAG tag
Method: After three washings with 300 μL of PBS-0.05% TWEEN®-20 (PBS-T), the plate was blocked by addition of 100 μL of PBS-2% BSA and incubated 1 hour at room temperature. After three washings with 300 μL of PBS-T, the plate was incubated for 1 hour at room temperature, with 100 μL of PBS-1% BSA containing 50 ng/mL FLAG®-tagged netrin-1 (Adipogen) and various quantities (0.2 ng to 3000 ng) of the 4C11 antibody. After three washings with 300 μL of PBS-T, 100 μL of an anti-FLAG® M2 monoclonal antibody conjugated to horse radish peroxidase (HRP) (Sigma A8592) diluted 1/5,000 in PBST-1% BSA was added and the plate was incubated 1 hour at room temperature. After three washings with 300 μL of PBS-T, 100 μL of a luminescent substrate of HRP (ECL western blotting substrate, PIERCE) is added. After 5 to 10 minutes, the luminescence was read on a Tecan Infinite F-500 luminometer.

EC50 [1] | IC50 [2] | Binder
0.166 µg/mL and 1.11 nM | 0.065 µg/mL and 0.434 nM | HUM03 (antibody, human IgG1, V domains shown, also called Humanized 4C11; humanized 4C11 hum03) VH: QVQLQQSGPGLVKPSQTLSLTCAISGYTFTSYNMHWVRQATGQGLEWMGAIYPGNGDTSYNQKFKGRLTISKDTSKNQVVLTMTNMDPVDTATYYCARGGTGFAYWGQG VL: DIQMTQSPSSLSASVGDRVTITCKASQSVSNDVAWYQQKPGQAPRLLIYYASNRYTGIPPRFSGSGYGTDFTLTINNIESEDAAYYFCQQDYSSPWTFGQG
0.211 µg/mL and 1.41 nM | 0.11 µg/mL and 0.734 nM | HUM10 (antibody, human IgG1, V domains shown, also called humanized 4C11 variant HUM10) VH: QVQLQQSGPGLVKPSQTLSLTCAISGYTFTSYNMHWIRQPPGKGLEWIGAIYPGNGDTSYNQKFKGRVTITADKSTSTAYMELSSLRSEDTAVYYCARGGTGFAYWGQG VL: DIQMTQSPSSLSASVGDRVTITCKASQSVSNDVAWYQQKPGQAPRLLIYYASNRYTGIPPRFSGSGYGTDFTLTINNIESEDAAYYFCQQDYSSPWTFGQG
0.134 µg/mL and 0.894 nM | 0.077 µg/mL and 0.514 nM | HUM08 (antibody, human IgG1, V domains shown, also called humanized 4C11 variant HUM08) VH: QVQLQQSGPGLVKPSQTLSLTCAISGYTFTSYNMHWVRQATGQGLEWMGAIYPGNGDTSYNQKFKGRLTISKDTSKNQVVLTMTNMDPVDTATYYCARGGTGFAYWGQG VL: DIQMTQSPSSLSASVGDRVTITCKASQSVSNDVAWYLQKPGQSPQLLIYYASNRYTGVPSRFSGSGSGTDFTFTISSLEAEDAATYYCQQDYSSPWTFGQG
0.151 µg/mL and 1.01 nM | 0.085 µg/mL and 0.567 nM | HUM05 (antibody, human IgG1, V domains shown, also called humanized 4C11 variant HUM05) VH: QVQLQESGPGLVKPSQTLSLTCTVSGYTFTSYNMHWVRQAPGQGLEWMGAIYPGNGDTSYNQKFKGRVTISVDTSKNQFSLKLSSVTAADTAVYYCARGGTGFAYWGQG VL: DIQMTQSPSSLSASVGDRVTITCKASQSVSNDVAWYLQKPGQSPQLLIYYASNRYTGVPSRFSGSGSGTDFTFTISSLEAEDAATYYCQQDYSSPWTFGQG
0.198 µg/mL and 1.32 nM | 0.199 µg/mL and 1.33 nM | HUM04 (antibody, human IgG1, V domains shown, also called humanized 4C11 variant HUM04) VH: EVQLVQSGAEVKKPGESLRISCKGSGYTFTSYNMHWVRQATGQGLEWMGAIYPGNGDTSYNQKFKGRFTISRDDSKNTAYLQMNSLKTEDTAVYYCARGGTGFAYWGQG VL: DIQMTQSPSSLSASVGDRVTITCKASQSVSNDVAWYLQKPGQSPQLLIYYASNRYTGVPSRFSGSGSGTDFTFTISSLEAEDAATYYCQQDYSSPWTFGQG
0.125 µg/mL and 0.834 nM | 0.089 µg/mL and 0.594 nM | HUM07 (antibody, human IgG1, V domains shown, also called humanized 4C11 variant HUM07) VH: QVQLQQSGPGLVKPSQTLSLTCAISGYTFTSYNMHWVRQATGQGLEWMGAIYPGNGDTSYNQKFKGRVTITADKSTSTAYMELSSLRSEDTAVYYCARGGTGFAYWGQG VL: DIQMTQSPSSLSASVGDRVTITCKASQSVSNDVAWYLQKPGQSPQLLIYYASNRYTGVPSRFSGSGSGTDFTFTISSLEAEDAATYYCQQDYSSPWTFGQG
0.26 µg/mL and 1.73 nM | 0.215 µg/mL and 1.43 nM | HUM02 (antibody, human IgG1, V domains shown, also called humanized 4C11 variant HUM02) VH: QVQLQQSGPGLVKPSQTLSLTCAISGYTFTSYNMHWIRQPPGKGLEWIGAIYPGNGDTSYNQKFKGRVTITADKSTSTAYMELSSLRSEDTAVYYCARGGTGFAYWGQG VL: DIQMTQSPSSLSASVGDRVTITCKASQSVSNDVAWFQQRPGQSPRRLIYYASNRYTGVPSRFSGSGSGTDFTFTISSLEAEDAATYYCQQDYSSPWTFGQG
13 nM and 0.65 µg/mL | 0.844 µg/mL and 16.9 nM | 4C11 Fab (Fab, V domains shown, only the variable domains are tied to it; also called Fab fragment of murine 4C11) VH: QAYLQQSGAELVRPGASVKMSCKASGYTFTSYNMHWVKQTPRQGLEWIGAIYPGNGDTSYNQKFKGKATLTVDKSSSTAYMQLSSLTSEDSAVYFCARGGTGFAYWGQGTLVTVSA VL: SIVMTQTPKFLLVSAGDRVTITCKASQSVSNDVAWYQQKPGQSPKLLIYYASNRYTGVPDRFTGSGYGTDFTFTISTVQAEDLAVYFCQQDYSSPWTFGGGTKLEIK
0.063 µg/mL and 0.42 nM | 0.085 µg/mL and 0.567 nM | 4C11 murine IgG2a (antibody, V domains shown) VH: QAYLQQSGAELVRPGASVKMSCKASGYTFTSYNMHWVKQTPRQGLEWIGAIYPGNGDTSYNQKFKGKATLTVDKSSSTAYMQLSSLTSEDSAVYFCARGGTGFAYWGQGTLVTVSA VL: SIVMTQTPKFLLVSAGDRVTITCKASQSVSNDVAWYQQKPGQSPKLLIYYASNRYTGVPDRFTGSGYGTDFTFTISTVQAEDLAVYFCQQDYSSPWTFGGGTKLEIK
0.035 µg/mL and 0.35 nM | 0.089 µg/mL and 0.89 nM | 4C11 Fab′2 (other, only the variable domains are tied to it; also called Fab′2 fragment of murine 4C11) VH: QAYLQQSGAELVRPGASVKMSCKASGYTFTSYNMHWVKQTPRQGLEWIGAIYPGNGDTSYNQKFKGKATLTVDKSSSTAYMQLSSLTSEDSAVYFCARGGTGFAYWGQGTLVTVSA VL: SIVMTQTPKFLLVSAGDRVTITCKASQSVSNDVAWYQQKPGQSPKLLIYYASNRYTGVPDRFTGSGYGTDFTFTISTVQAEDLAVYFCQQDYSSPWTFGGGTKLEIK
0.134 µg/mL and 0.894 nM | 0.054 µg/mL and 0.36 nM | HUM01 (antibody, human IgG1, V domains shown, also called humanized 4C11 variant HUM01) VH: QVQLVQSGAEVKKPGASVKVSCKASGYTFTSYNMHWVRQATGQGLEWMGAIYPGNGDTSYNQKFKGRVTITADKSTSTAYMELSSLRSEDTAVYYCARGGTGFAYWGQG VL: EIVMTQSPATLSVSPGERATLSCKASQSVSNDVAWYQQKPGKAPKLLIYYASNRYTGIPPRFSGSGYGTDFTLTINNIESEDAAYYFCQQDYSSPWTFGQG
0.139 µg/mL and 0.927 nM | 0.082 µg/mL and 0.547 nM | HUM06 (antibody, human IgG1, V domains shown, also called humanized 4C11 variant HUM06) VH: QVQLVQSGAEVKKPGASVKVSCKASGYTFTSYNMHWVRQATGQGLEWMGAIYPGNGDTSYNQKFKGRVTITADKSTSTAYMELSSLRSEDTAVYYCARGGTGFAYWGQG VL: DIQMTQSPSSLSASVGDRVTITCKASQSVSNDVAWYQQKPGQAPRLLIYYASNRYTGIPPRFSGSGYGTDFTLTINNIESEDAAYYFCQQDYSSPWTFGQG
0.153 µg/mL and 1.02 nM | 0.071 µg/mL and 0.474 nM | HUM09 (antibody, human IgG1, V domains shown, also called humanized 4C11 variant HUM09) VH: QVQLVQSGAEVKKPGASVKVSCKASGYTFTSYNMHWVRQATGQGLEWMGAIYPGNGDTSYNQKFKGRVTITADKSTSTAYMELSSLRSEDTAVYYCARGGTGFAYWGQG VL: DIVMTQTPLSLPVTPGEPASISCKASQSVSNDVAWYQQKPGQAPRLLIYYASNRYTGIPPRFSGSGYGTDFTLTINNIESEDAAYYFCQQDYSSPWTFGQG
